Source: IntAct's records for PubMed 19262567

Assays:
if4e_human EIF4E [1] = target: if4e_human EIF4E (UniProt P06730)
if4e_human EIF4E [2] = target: if4e_human EIF4E (UniProt P06730); remark: listed apart in the source

Chain of if4e_human EIF4E (P06730 whole entry): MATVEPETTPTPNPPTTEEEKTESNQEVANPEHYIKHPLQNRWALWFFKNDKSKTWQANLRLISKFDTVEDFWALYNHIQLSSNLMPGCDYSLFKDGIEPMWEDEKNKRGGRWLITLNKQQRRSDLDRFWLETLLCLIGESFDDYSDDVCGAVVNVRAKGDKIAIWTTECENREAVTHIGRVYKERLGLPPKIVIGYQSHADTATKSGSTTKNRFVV

| effect of a mutation on the interaction (if4e_human EIF4E [1]) | effect of a mutation on the interaction (if4e_human EIF4E [2]) | Substance |
| --- | --- | --- |
| disrupting interaction | – | Leucine-rich PPR motif-containing protein, mitochondrial (Homo sapiens) (from UniProt P42704) Y441A |
| – | disrupting interaction | Leucine-rich PPR motif-containing protein, mitochondrial (Homo sapiens) (from UniProt P42704) Y583A |
